Laboratory results reported in paper PMC3254808 (Biochemistry, 2011).

B1: Erv2p (Saccharomyces cerevisiae S288C) (protein)
chain: MKQIVKRSHAIRIVAALGIIGLWMFFSSNELSIATPGLIKAKSGIDEVQGAAAEKNDARLKEIEKQTIMPLMGDDKVKKEVGRASWKYFHTLLARFPDEPTPEEREKLHTFIGLYAELYPCGECSYHFVKLIEKYPVQTSSRTAAAMWGCHIHNKVNEYLKKDIYDCATILEDYDCGCSDSDGKRVSLEKEAKQHG
B2: Erv2p, wild type (enzyme, yeast, UniProt Q12284 1-196, looked up)
chain: PGLIKAKSGIDEVQGAAAEKNDARLKEIEKQTIMPLMGDDKVKKEVGRASWKYFHTLLARFPDEPTPEEREKLHTFIGLYAELYPCGECSYHFVKLIEKYPVQTSSRTAAAMWGCHIHNKVNEYLKKDIYDCATILEDYDCGCSDSDGKRVSLEKEAKQHG

Columns and labels:
oxygen electrode = substrate: OC(CS)C(O)CS; test: oxygen electrode; type: biochemical, Saccharomyces cerevisiae; conditions: O2 as co-substrate, 50 mM Tris/HCl, 0.3 mM EDTA, pH 7.5, 25 °C
cross-linking = biological target: the molecule itself; test: cross-linking

| Protein | Km (oxygen electrode) | kcat (oxygen electrode) | stoichiometry N (cross-linking) |
| --- | --- | --- | --- |
| B1 | 7 ± 1 mM | 230 ± 8 min⁻¹ |  |
| B2 |  |  | 2 |
